Measured values taken from paper PMC13064845 (2025).

Target: thrombospondin-1 (TSP1), immobilised in the Biacore analysis (UniProt P35441 19-1170)
Assay: SPR

thrombospondin-1 (TSP1), immobilised in the Biacore analysis, sequence (P35441 19-1170): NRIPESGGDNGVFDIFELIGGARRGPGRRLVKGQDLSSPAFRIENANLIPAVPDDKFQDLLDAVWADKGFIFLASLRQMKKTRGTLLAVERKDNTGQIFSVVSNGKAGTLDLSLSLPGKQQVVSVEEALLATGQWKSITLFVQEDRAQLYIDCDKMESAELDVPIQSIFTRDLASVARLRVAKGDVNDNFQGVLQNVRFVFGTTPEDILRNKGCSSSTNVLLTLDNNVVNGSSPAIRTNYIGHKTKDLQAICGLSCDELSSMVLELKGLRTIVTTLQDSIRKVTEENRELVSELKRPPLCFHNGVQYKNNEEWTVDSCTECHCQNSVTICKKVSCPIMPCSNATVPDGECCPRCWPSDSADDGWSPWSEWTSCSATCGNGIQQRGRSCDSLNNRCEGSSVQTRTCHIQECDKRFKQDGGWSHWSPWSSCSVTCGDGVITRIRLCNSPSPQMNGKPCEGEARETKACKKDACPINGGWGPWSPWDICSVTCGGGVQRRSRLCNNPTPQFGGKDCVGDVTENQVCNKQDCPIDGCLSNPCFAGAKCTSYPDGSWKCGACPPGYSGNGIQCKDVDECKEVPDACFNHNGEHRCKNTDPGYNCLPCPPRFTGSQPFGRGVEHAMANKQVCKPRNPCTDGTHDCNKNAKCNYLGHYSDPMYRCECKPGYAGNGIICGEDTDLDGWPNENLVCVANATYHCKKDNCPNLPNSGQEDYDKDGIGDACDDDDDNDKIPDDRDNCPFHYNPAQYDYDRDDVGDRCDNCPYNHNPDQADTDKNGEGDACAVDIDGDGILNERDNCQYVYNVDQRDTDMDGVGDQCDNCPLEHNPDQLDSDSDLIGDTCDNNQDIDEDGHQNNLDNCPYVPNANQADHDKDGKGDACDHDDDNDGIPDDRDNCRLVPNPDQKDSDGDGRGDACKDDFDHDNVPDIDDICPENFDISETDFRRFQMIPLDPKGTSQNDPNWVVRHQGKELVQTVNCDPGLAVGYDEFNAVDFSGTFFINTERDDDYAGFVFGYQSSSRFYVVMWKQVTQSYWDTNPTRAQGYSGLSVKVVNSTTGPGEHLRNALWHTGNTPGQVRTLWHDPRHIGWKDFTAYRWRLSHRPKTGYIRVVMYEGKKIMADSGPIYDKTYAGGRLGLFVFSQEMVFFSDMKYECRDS

B1: fibulin-7 (FBLN7), analyte of the Biacore analysis (natural protein)
chain: QSCLNKQQLLTTIRQLQQLLKGQETRFTEGIRNMKSRLAALQNTVNKMTPDAPPVSCPALEAPPDGKKFGSKYLVDHEVYFTCNPGFQLVGPSSVVCLANGSWTGEQPRCRDISECSSQPCHNGGTCVEGINHYRCICPPGKTGNRCQHQTQAAAPDGGEAGDPAFSRAPRCAQVEREQHCSCEAGFHLSSTTGGHSVCQDVNECEIYGQKGRPRLCMHACVNTPGSYRCTCPSGYRILADGKSCEDVDECAGPQHMCPRGTTCINTGGGFQCVNPECPEGSGNISYVKTSPFQCERNPCPMDSRPCRHLPKTISFHYLSLPSKLKTPITLFRMATASIPGHPGPNSLRFGIVGGNSRGHFVMQRSDRQTGELILTQTLEGPQTLEVDVDMSEYLERSFQANHVSKVTIFVSRYDF
  Kd: 29.9 nM
